{"source": "patent US20250297009A1", "key": {"[1]": {"target": "Human TGF-β1 (Acrobiosystems, TG1-H421) (human) (UniProt P01137)", "sequence (P01137 279-390 limits assumed)": "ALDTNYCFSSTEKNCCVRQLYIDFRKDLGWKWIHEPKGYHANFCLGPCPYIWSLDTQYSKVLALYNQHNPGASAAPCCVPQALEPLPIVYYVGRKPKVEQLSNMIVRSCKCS", "assay": "ELISA, human TGF-β1 coated, mouse anti-human Fc-HRP detection"}, "[2]": {"target": "Human TGF-β3 (PeproTech, 100-36E) (human) (UniProt P10600)", "sequence (P10600 301-412 limits assumed)": "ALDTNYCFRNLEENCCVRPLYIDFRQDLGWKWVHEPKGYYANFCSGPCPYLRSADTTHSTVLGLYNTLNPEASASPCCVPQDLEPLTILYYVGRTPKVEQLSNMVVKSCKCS", "assay": "ELISA, human TGF-β3 coated, mouse anti-human Fc-HRP detection"}}}
{"substance": "TGF-βRII (Fc fusion)", "values": [{"measurement": "EC50 (read off the curve)", "setting": "[1]", "value": 0.3, "unit": "nM"}, {"measurement": "EC50 (read off the curve)", "setting": "[2]", "value": 0.2, "unit": "nM"}]}
